Experimental data as given in patent publication US20170080108A1 (DNARX, published 2017).

T1: CD20 on human Raji B cells (human, UniProt P11836 1-297)
T1 construct: whole, on cells; The target is presented on Raji cells; also called CD20+ human B lymphoma (Raji) cells; CD-20+ human Raji B cells
T1 sequence (looked up): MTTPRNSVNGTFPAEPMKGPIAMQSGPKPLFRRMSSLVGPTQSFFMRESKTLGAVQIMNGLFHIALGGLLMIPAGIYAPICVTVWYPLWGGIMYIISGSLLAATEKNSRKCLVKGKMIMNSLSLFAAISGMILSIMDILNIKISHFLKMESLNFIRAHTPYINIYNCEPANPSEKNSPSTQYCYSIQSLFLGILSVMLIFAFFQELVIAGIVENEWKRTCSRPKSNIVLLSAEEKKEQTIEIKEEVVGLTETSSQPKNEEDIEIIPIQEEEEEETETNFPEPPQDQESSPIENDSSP

B1: recombinant Rituximab protein (antibody, V domains shown)
VH: QVQLQQPGAELVKPGASVKMSCKASGYTFTSYNMHWVKQTPGRGLEWIGAIYPGNGDTSYNQKFKGKATLTADKSSSTAYMQLSSLTSEDSAVYYCARSTYYGGDWYFNVWGAGTTVTVSA
VL: QIVLSQSPAILSASPGEKVTMTCRASSSVSYIHWFQQKPGSSPKPWIYATSNLASGVPVRFSGSGSGTSYSLTISRVEAEDAATYYCQQWTSNPPTFGGGTKLEIK

Assays:
[1] = target: CD20 on human Raji B cells (human) (UniProt P11836); assay: flow cytometry on Raji cells, anti-human IgG-PE detection
[2] = target: T1, CD20 on human Raji B cells; assay: as above

| Molecule | Mean Fluorescence Intensity [1] | fluorescence intensity, fold over background [1] [fold] | fluorescence intensity, fold over background [2] [fold] |
| --- | --- | --- | --- |
| Rituximab present in mouse serum after injection of a dual cassette, single plasmid Rituximab DNA vector (antibody) | 3530 | > 10 |  |
| B1 |  |  | > 10 |
